Data reported in patent US8293529B2, “Method for inducing differentiation of pluripotent stem cells into cardiomyocytes” (Daiichi Sankyo Company, Limited, priority 2006, dated 2012).

Tests used:
[1] = system: human ES cells; settings: rises from 15% without treatment; cited from earlier work
[2] = system: mouse ES cells; test: Appearance rate of EBs exhibiting spontaneous beating; type: cell-based; settings: for occurrence of beating EBs: Wnt proteins added at 10 ng/mL to 50 ng/mL; for appearance rate of beating EBs: recombinant protein added at 1 ng/mL to 100 ng/mL
Protocol: Culture for inducing differentiation of ES cells into cardiomyocytes or neurons was accomplished in a routine manner as follows. ES cells were suspended in LIF-free medium, and the resulting suspension was seeded at 500 cells/50 μL per well of a commercially available 96-well culture plate for spheroid formation (Sumilon Celltight Spheroid; Sumitomo Bakelite Co., Ltd., Japan).
In the early stage of differentiation in ES cells, transient elevations in expression of various Wnt genes were observed prior to the appearance of cardiomyocytes. Then, ES cells at this stage were treated with recombinant Wnt proteins to study the myocardial differentiation-inducing effect of the proteins. Induction of ES cell differentiation was accomplished in the same manner as used in Example 1, except that some of the experimental groups were cultured in medium containing a commercially available recombinant WNT-1 (Peprotech), Wnt-3a (R&D systems) or Wnt-5a (R&D systems) protein. Treatment of ES cells in medium supplemented with a recombinant protein of canonical Wnt such as WNT-1 is hereinafter referred to as “Wnt treatment.”
The above canonical Wnt protein treatment is known to inhibit the action of GSK3β within cells and thereby promote stabilization of β-catenin and its transcription activation ability. Then, further studies were performed to confirm that treatment with various drugs capable of promoting stabilization of β-catenin and its transcription activation ability produced a myocardial differentiation-inducing effect on ES cells, as in the case of Wnt treatment. As drugs capable of promoting stabilization of β-catenin and its transcription activation ability, the following five commercially available compounds were used: GSK3β inhibitors BIO (Calbiochem), GSK3β inhibitor VII (Calbiochem), cell-permeable GSK3β peptide inhibitor (L803-mts; Calbiochem) and SB216763 (Biomol), as well as a Wnt agonist (Calbiochem) that promotes the transcription activation ability of β-catenin without GSK3β inhibition. ES cells were induced to differentiate in the same manner as used in the above Examples, and cultured in medium containing the above compounds during the time period between 48 and 120 hours ([…]) after induction of differentiation, as in the case of recombinant Wnt proteins.

[3] = system: mouse ES cells; test: Wnt gene expression during induction of differentiation in ES cells (real-time PCR); type: cell-based; settings: BMP antagonist treatment 15 ng/mL, 3 days before and immediately after induction; 72 hours after induction of differentiation; vs untreated group
Text: Various Wnt genes were studied for their expression during differentiation in mouse ES cells. For use in experiments, mouse ES cells were passaged and maintained in an undifferentiated state according to the methods as described in “Manipulating the Mouse Embryo: A Laboratory Manual” (Hogan et al., eds., Cold Spring Harbor Laboratory Press, 1994) and “Embryonic Stem Cells: Methods and Protocols” (Turksen ed., Humana Press, 2002) by using Knockout-DMEM (Invitrogen) medium containing 20% fetal bovine serum, 2 mmol/L L-glutamine and 0.1 mmol/L 2-mercaptoethanol (hereinafter referred to as ESM), supplemented with 1000 U/mL LIF (ESGRO; Chemicon). […]
The EBs thus prepared were collected periodically, and total RNA was prepared with an RNeasy mini kit (Qiagen), followed by DNase treatment. cDNA was synthesized from the DNase-treated total RNA (1 μg) using a SuperScript™ First-Strand Synthesis System for RT-PCR (Invitrogen). Analysis of gene expression was performed with an ABI PRISM 7700 (PE Applied Biosystems) by using a real-time polymerase chain reaction (PCR) quantification system with Lux primers to examine the expression level of each gene. The real-time PCR quantification was accomplished by using the above cDNA as a template and using Platinum Quantitative PCR SuperMix-UDG (Invitrogen) according to the instructions attached thereto. […]

[4] = system: mouse ES cells; test: Immunohistochemical staining of cardiomyocyte-specific marker proteins in EBs; type: cell-based; settings: EBs at 10 days after induction of differentiation
Protocol: Subsequently, immunohistochemical staining was performed to confirm that beating cells developed in EBs from the Wnt-treated groups produced cardiomyocyte-specific marker proteins. EBs in the Wnt-treated group (Wnt^48˜120h group) at 10 days after induction of differentiation were freshly embedded in a compound for preparing frozen sections (OCT Compound, Sakura Finetek USA Inc.) and then frozen with liquid nitrogen. The frozen samples were sectioned at 6 μm of thickness and attached on glass slides. These frozen sections were reacted with anti-sarcomeric myosin antibody (MF20; American Type Culture Collection), anti-GATA-4 antibody (C-20; Santa Cruz) or anti-Nkx-2.5 antibody (N-19; Santa Cruz) as a primary antibody and then reacted with a horseradish peroxidase-labeled secondary antibody (Bio-RAD), and finally subjected to a color reaction with ACE (3-amino-9-ethylcarbazole) substrate solution (Nichirei Corporation, Japan) and observed under an optical microscope.

[5] = system: cmES cells; test: Immunohistochemical staining of marker proteins in EBs from cmES cells; type: cell-based, common marmoset; settings: EBs at 16 days after induction of differentiation
Protocol: Subsequently, immunohistochemical staining was performed in the same manner as used in Example 2 to confirm that beating cells developed in EBs from the Wnt-treated groups were cardiomyocytes producing specific marker proteins. From EBs in the Wnt-treated groups (Wnt-3a, WNT-1) at 16 days after induction of differentiation, frozen sections were prepared and reacted with anti-sarcomeric myosin antibody, anti-GATA-4 antibody or anti-Nkx-2.5 antibody as a primary antibody. After color reaction, these sections were observed under an optical microscope.

Nc1ncn([C@@H]2O[C@H](CO)[C@@H](O)[C@H]2O)c(=O)n1 [5-azacytidine]
percentage of troponin I-positive cells (candidate cardiomyocytes) in EBs [1]: 44%

B1: Chordin: commercially available recombinant Chordin protein (R&D systems), BMP antagonist (protein, UniProt Q9H2X0 27-955, looked up)
Chordin: AGPEPPVLPIRSEKEPLPVRGAAGCTFGGKVYALDETWHPDLGEPFGVMRCVLCACEAPQWGRRTRGPGRVSCKNIKPECPTPACGQPRQLPGHCCQTCPQERSSSERQPSGLSFEYPRDPEHRSYSDRGEPGAEERARGDGHTDFVALLTGPRSQAVARARVSLLRSSLRFSISYRRLDRPTRIRFSDSNGSVLFEHPAAPTQDGLVCGVWRAVPRLSLRLLRAEQLHVALVTLTHPSGEVWGPLIRHRALAAETFSAILTLEGPPQQGVGGITLLTLSDTEDSLHFLLLFRGLLEPRSGGLTQVPLRLQILHQGQLLRELQANVSAQEPGFAEVLPNLTVQEMDWLVLGELQMALEWAGRPGLRISGHIAARKSCDVLQSVLCGADALIPVQTGAAGSASLTLLGNGSLIYQVQVVGTSSEVVAMTLETKPQRRDQRTVLCHMAGLQPGGHTAVGICPGLGARGAHMLLQNELFLNVGTKDFPDGELRGHVAALPYCGHSARHDTLPVPLAGALVLPPVKSQAAGHAWLSLDTHCHLHYEVLLAGLGGSEQGTVTAHLLGPPGTPGPRRLLKGFYGSEAQGVVKDLEPELLRHLAKGMASLMITTKGSPRGELRGQVHIANQCEVGGLRLEAAGAEGVRALGAPDTASAAPPVVPGLPALAPAKPGGPGRPRDPNTCFFEGQQRPHGARWAPNYDPLCSLCTCQRRTVICDPVVCPPPSCPHPVQAPDQCCPVCPEKQDVRDLPGLPRSRDPGEGCYFDGDRSWRAAGTRWHPVVPPFGLIKCAVCTCKGGTGEVHCEKVQCPRLACAQPVRVNPTDCCKQCPVGSGAHPQLGDPMQADGPRGCRFAGQWFPESQSWHPSVPPFGEMSCITCRCGAGVPHCERDDCSLPLSCGSGKESRCCSRCTAHRRPAPETRTDPELEKEAEGS
regions of EBs exhibiting beating ([2]; Wnt 48-96 h and 48-120 h groups, Chordin-treated EBs): beating throughout virtually all regions of their surface layer | expression levels of the Wnt genes (Wnt-3, Wnt-3a, Wnt-8a) [3]: significantly higher than those of the untreated group

B2: DAN: commercially available recombinant DAN protein (R&D systems), BMP antagonist (protein, UniProt P41271 17-181, looked up)
Neuroblastoma suppressor of …: AAPPPINKLALFPDKSAWCEAKNITQIVGHSGCEAKSIQNRACLGQCFSYSVPNTFPQSTESLVHCDSCMPAQSMWEIVTLECPGHEEVPRVDKLVEKILHCSCQACGKEPSHEGLSVYVQGEDGPGSQPGTHPHPHPHPHPGGQTPEPEDPPGAPHTEEEGAED
cells positive for sarcomeric myosin, Nkx-2.5 and GATA-4 [4]: the great majority of EB-constituting cells were found to be positive | expression levels of the Wnt genes (Wnt-3, Wnt-3a, Wnt-8a) [3]: significantly higher than those of the untreated group

B3: Wnt-5a: commercially available recombinant mouse-derived Wnt-5a protein (R&D systems) (protein, listed as Mus musculus)
chain: MKKPIGILSPGVALGTAGGAMSSKFFLMALATFFSFAQVVIEANSWWSLGMNNPVQMSEVYIIGAQPLCSQLAGLSQGQKKLCHLYQDHMQYIGEGAKTGIKECQYQFRHRRWNCSTVDNTSVFGRVMQIGSRETAFTYAVSAAGVVNAMSRACREGELSTCGCSRARPKDLPRDWLWGGCGDNIDYGHPFAKEFVDARERERIHAKGSYESARILMNLHNNEAGRRTVYNLADVACKCHGVSGSCSLKTCWLQLADFRKVGDALKEKYDSAAAMRLNSRGKLVQVNSRFNSPTTQDLVYIDPSPDYCVRNESTGSLGTQGRLCNKTSEGMDGCELMCCGRGYDQFKTVQTERCHCKFHWCCYVKCKKCTEIVDQFVCK
occurrence of beating EBs [2]: very good occurrence of beating EBs | appearance rate of beating EBs [2]: significantly higher than in the untreated group

B4: WNT-1: commercially available recombinant human-derived WNT-1 protein (Peprotech), canonical Wnt (protein, listed as Mus musculus)
chain: MGLWALLPSWVSTTLLLALTALPAALAANSSGRWWGIVNIASSTNLLTDSKSLQLVLEPSLQLLSRKQRRLIRQNPGILHSVSGGLQSAVRECKWQFRNRRWNCPTAPGPHLFGKIVNRGCRETAFIFAITSAGVTHSVARSCSEGSIESCTCDYRRRGPGGPDWHWGGCSDNIDFGRLFGREFVDSGEKGRDLRFLMNLHNNEAGRTTVFSEMRQECKCHGMSGSCTVRTCWMRLPTLRAVGDVLRDRFDGASRVLYGNRGSNRASRAELLRLEPEDPAHKPPSPHDLVYFEKSPNFCTYSGRLGTAGTAGRACNSSSPALDGCELLCCGRGHRTRTQRVTERCNCTFHWCCHVSCRNCTHTRVLHECL
occurrence of beating EBs [2]: very good occurrence of beating EBs | appearance rate of beating EBs [2]: significantly higher than in the untreated group | cells positive for sarcomeric myosin, GATA-4 and Nkx-2.5 [5]: the great majority of EB-constituting cells were found to be positive
